± gives the uncertainty stated by the source.
Assay: protein stability index of a GFP-peptide fusion (yeast GPS) (PSI 1-4); higher = more stable; sorted into four equal gates, so the index is relative within each strain
Summary of the method: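 Tiled 17-residue yeast protein peptides were fused downstream of GFP in a plasmid that also expresses Cherry, and the pooled library was carried in yeast. Mid-log cultures in leucine-free medium were sorted into four equal gates by GFP/Cherry fluorescence ratio, and plasmids from each gate were PCR-amplified and Illumina-sequenced, with reads assigned to strains by barcodes. The protein stability index for each peptide was each gate's read frequency times its gate number, summed.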

Sequence | protein stability index (doa10∆) | protein stability index (pdr5∆) | protein stability index (san1∆) | protein stability index (ubr1∆)
ISFVLGVRSNHLRSNIL [SMC1] | 2.09 ± 0.061 | 2.16 ± 0.088 | 2.08 ± 0.097 | 2.47 ± 0.064
GTGNNSAVKRLLHVAVS [RPN2] | 2.19 ± 0.24 | 2.51 ± 0.25 | – | 1.58 ± 0.15
LRDIGECENEIKTKQMS [SMC2] | 3.05 ± 0.29 | 3.29 ± 0.092 | 3.2 ± 0.097 | 3.41 ± 0.12
SSLIPHCITSITLALAD [MTR3] | 1.28 ± 0.055 | 1.32 ± 0.069 | 1.27 ± 0.17 | 1.3 ± 0.083
HKQVYPLRMETIPILES [DSN1] | 1.73 ± 0.049 | 2.37 ± 0.05 | 2.24 ± 0.066 | 2.14 ± 0.038
LEIMQLVCGNDSSYQDI [RET1] | – | – | 3.18 ± 0.081 | 2.91 ± 0.17
CYQFAEYLFKPQLISDK [ARP7] | 2.38 ± 0.06 | 2.14 ± 0.049 | 2.2 ± 0.064 | 2.11 ± 0.04
LKHTDYWYEQDSAKEWP [RPB3] | 3.18 ± 0.15 | 3.31 ± 0.13 | 2.36 ± 0.21 | –
NMVLENVKELWTEKKGK [SMD2] | 2.91 ± 0.11 | 2.67 ± 0.098 | 2.47 ± 0.14 | 3.3 ± 0.065
LMASVILDSLPSVIHSS [YDL116W/NUP84] | 1.76 ± 0.042 | 1.38 ± 0.039 | 1.34 ± 0.067 | 1.48 ± 0.034
GEGERFTVDKKIAERSL [SKP1] | 3.44 ± 0.12 | 3.38 ± 0.12 | 3.36 ± 0.12 | 3.37 ± 0.24
RAGKYELVKSYSWLLFE [YJR042W/NUP85] | 1.62 ± 0.11 | 1.78 ± 0.08 | 1.18 ± 0.14 | 1.33 ± 0.062
AAVLSNLQGDLQAIQEK [ITC1] | – | – | 3.31 ± 0.16 | –
QWNKLTSFDIKREGRNE [POP6] | 3.31 ± 0.3 | – | – | –
QPEDLEPAEANEENDLD [RPB2] | 3.35 ± 0.17 | 3.15 ± 0.19 | 3.21 ± 0.13 | 3.42 ± 0.16
SLPEFFTNRIPSKTPEV [SWI3] | 2.56 ± 0.066 | 2.53 ± 0.054 | 2.65 ± 0.062 | 2.66 ± 0.059
DDESPRFVMPNQLLAAL [RRP6] | 1.98 ± 0.048 | 2.02 ± 0.052 | 1.88 ± 0.069 | 2.18 ± 0.042
PRMVRDVFRLARENAPS [RPT3] | 2.62 ± 0.17 | 2.88 ± 0.059 | 2.86 ± 0.16 | 2.89 ± 0.097
KELNTERQIFLEACIVR [CDC53] | 2.09 ± 0.048 | 2.23 ± 0.072 | 2.5 ± 0.056 | 2.57 ± 0.047
FIRKYINQKALRKIQAL [GAL11] | 2.38 ± 0.25 | 1.49 ± 0.22 | 1.79 ± 0.23 | –
DFSIRKTCAKSVIQLCG [ECM29] | 1.84 ± 0.12 | 1.91 ± 0.13 | 2.05 ± 0.22 | –
DWIRFVSIRQNQYKLVF [RPL22B] | 1.37 ± 0.076 | 1.48 ± 0.041 | 1.26 ± 0.1 | 1.26 ± 0.055
NDSENNSSEEDKKKGQN [ITC1] | 2.24 ± 0.073 | 2.53 ± 0.11 | 2.68 ± 0.12 | 2.86 ± 0.1
EVTKLLKNEGIDLDHKR [SMC4] | 3.08 ± 0.12 | 3.2 ± 0.17 | – | 3.55 ± 0.1
EFFNTLRKSRETVKLPR [RRI2] | – | 3.55 ± 0.18 | 3.02 ± 0.15 | –
DITFFGEALPNKFHKSI [SIR2] | 3 ± 0.11 | 2.98 ± 0.1 | 2.61 ± 0.082 | 2.64 ± 0.054
KRKLLEHRRYDDQLKQR [RPT4] | 2.04 ± 0.27 | 2.1 ± 0.22 | 1.42 ± 0.23 | 1.92 ± 0.17
DAKSSAYSSRFQTPFRR [RPL5] | 2.82 ± 0.067 | 2.83 ± 0.052 | 2.78 ± 0.054 | 2.91 ± 0.05

Reference: the supplement of paper PMC9732359
